From patent publication US20170099813

Experiments:
Test in all cases: cell_activity
[1] = tested on: ssSRY1.1 TALEN left monomer (artificial); conditions: pair with p2; Surveyor day 3, swine fibroblasts; 46.3% HDR with ssODN
[2] = tested on: ssSRY1.2 TALEN right monomer (artificial); conditions: pair with p3; Surveyor day 3, swine fibroblasts
[3] = tested on: ssSRY1.3 TALEN left monomer (artificial); conditions: pair with p6; Surveyor day 3, swine fibroblasts
[4] = tested on: ssSRY1.2 TALEN left monomer (artificial); conditions: pair with p4; Surveyor day 3, swine fibroblasts
[5] = tested on: ssSRY1.1 TALEN right monomer (artificial); conditions: pair with p1; Surveyor day 3, swine fibroblasts; 46.3% HDR with ssODN
[6] = tested on: ssSRY1.3 TALEN right monomer (artificial); conditions: pair with p5; Surveyor day 3, swine fibroblasts

Work on “GAACGCTTTCATTGTG (double strand) [ssSRY1.1 left half-site]” yielded an activity [1] of 30 % NHEJ.

“GCAAGTGGCTGGGATGC (double strand) [ssSRY1.2 right half-site]” was tested, and the activity [2] was 35 % NHEJ.

With “CAGCAAGTGGCTGGGA (double strand) [ssSRY1.3 left half-site]” the activity [3] was 16.2 % NHEJ.

Work on “AGAGAACCCTCAAATG (double strand) [ssSRY1.2 left half-site]” yielded an activity [4] of 35 % NHEJ.

Work on “GGAGAAAAGTGGCTCT (double strand) [ssSRY1.1 right half-site]” yielded an activity [5] of 30 % NHEJ.

Sequence “TTACAGAAGCCGAAA (double strand) [ssSRY1.3 right half-site]” has an activity [6] of 16.2 % NHEJ.
